According to US20200115433A1:

Target: …-HLA-A2 complex (human)
Assay: SPR BIAcore T200, single-cycle kinetics, pMHC on chip

B1: single chain TCR s-10 (TCR)
chain: SQQGEEDPQALSIQEGENVTINCSYKGWAQNRQNSGRGLVHLILIRSNEREKHSGRLRVTLDTSKKSSSLEITAVRPADTASYFCATDANARWDFGKGTRLHILPGGGSEGGGSEGGGSEGGGSEGGTGDAGVTQSPRHESVEMGQEVTLRCKPISGHDYLFWYRQTPKRGLELLIYFNHGAVIDDSGMPEDRFSAKMPNASFSTLKIQPVEPRDSAVYFCASQLGSNEQYFGPGTRLTVT
**Q.** With B1 as the binder, how does the Kd read?
**A.** Its Kd is 425 pM.
